The test addresses DS_ConC_SOSIP trimer (ConC_SOSIP with the disulfide 201C-433C) (HIV-1 (clade C consensus)). Briefly: negative-stain electron microscopy.

Take “DS_ConC_SOSIP trimer (ConC_SOSIP with the disulfide 201C-433C) (complex)”: the stoichiometry N turned out to be 3.

These data come from PMC6010203.
